Test results published in patent publication US7592307B2, “Releasable linkage and compositions containing same” (Alza Corporation, priority 1999, dated 2009).

Experiments:
[1] = Blood lysozyme concentration after intravenous or subcutaneous administration; type: in vivo; conditions: rats
Description: The mPEG12000-MeDTB-lysozyme conjugates were administered in vivo to rats to characterize the in vivo behavior of the conjugate and its ability to cleave under physiologic conditions. In a first study, nine rats were divided into three test groups for administration of PEG-lysozyme, PEG-MeDTB-lysozyme, or free lysozyme. The test compound was administered intravenously or subcutaneously and blood samples were taken at defined times for analysis of blood lysozyme concentration.

[2] = Thiolytic cleavage of PEG-lysozyme conjugates (SDS-PAGE, RP-HPLC); type: physicochemical; conditions: for cleavage under reducing SDS-PAGE conditions: 2% β-mercaptoethanol, 10 minutes at 70° C.
Description: In a study performed in support of the invention, lysozyme was used as a model polypeptide. As described in Example 8, lysozyme was incubated with mPEG-MeDTB-nitrophenylcarbonate in 0.1 M borate, at pH 9, at a 2:1 ratio of nitrophenylcarbonate to amino group of lysozyme. After reactions times of 15 minutes and 3 hours, separate samples were characterized by SDS-PAGE. A comparative conjugate was prepared by reacting lysozyme under the same conditions for 60 minutes with mPEG-nitrophenyl carbonate, which will form a stable mPEG-lysozyme conjugate.
Lanes 6-9 of the gel correspond to the samples in Lanes 1-4, but under reducing SDS-PAGE conditions, after treatment with 2% β-mercaptoethanol for 10 minutes at 70° C. […] In contrast, the stable mPEG-lysozyme conjugate was not affected upon incubation with a reducing agent, as evidenced by the agreement in the profile in Lane 9 and Lane 4.
A similar study was done using cysteine as a reducing agent on a purified mPEG5000-MeDTB-lysozyme conjugate. The results of the SDS-PAGE profile are shown in FIG. 12B, where an mPEG-MeDTB-lysozyme conjugate (Lane 1) treated with 1 mM cysteine (Lane 2), 5 mM cysteine (Lane 3), and 50 mM cysteine (Lane 4) are shown. Also shown are an mPEG-lysozyme conjugate (no cleavable linkage) before (Lane 5) and after treatment (Lane 6) with 50 mM cysteine. Lysozyme before (Lane 7) and after (Lane 8) with 50 mM cysteine are also shown. Lane 9 corresponds to protein markers.
Example 8 describes the methodology of the reverse-phase HPLC analysis. The trace at the bottom of FIG. 13A corresponds to neat lysozyme.
Reverse-phase HPLC analysis. RP-HPLC separation of PEG-lysozyme conjugates was achieved on a Vydac™ Protein C4 (4.6×150 mm) column eluted at 1 ml/min with aqueous acetonitrile gradient as follows. Each chromatography run started with a mobile phase A (30% acetonitrile, 5% 0.1 M sodium acetate pH 5, and 65% H2O), and over a period of 40 min ended with a mobile phase B (50% acetonitrile, 50% 0.1 M sodium acetate pH 5). UV detector set at 280 nm was used to monitor the chromatography. SDS-PAGE. Polyacrylamide gel electrophoresis under denaturing conditions was performed for conjugates characterization. Pre-cast NuPAGE® Bis-Tris gels (4-15%), NuPAGE®MES running buffer, molecular weight protein standards (Mark 12™), and Colloidal Coomassie® G-250 staining kit, were all obtained from Invitrogen, Carlsbad, Calif. […] Aliquots were taken out from the reaction vial at various time points and analyzed by RP-HPLC as described above (see FIG. 13A). […] Purified PEG-DTB-lysozyme containing only one PEG moiety per lysozyme was treated with 1 mM cysteine while the reaction was monitored by LC-MS. […]

bacterial cell wall = experiment: Bacterial cell wall lysis turbidometric assay of enzyme activity; type: biochemical; conditions: after treatment with 1 mM cysteine
[3] = Cleavage of mPEG-MeDTB-lysozyme in plasma (SDS-PAGE stained for PEG); type: in vitro ADME; conditions: plasma for 18 hours
Description: The samples were stained with iodine, for PEG visualization. Lane 1 corresponds to mPEG5000-MeDTB-lysozyme, Lane 2 corresponds to mPEG5000-MeDTB-lysozyme in cysteine buffer, Lane 3 corresponds to mPEG5000-MeDTB-lysozyme in plasma for 18 hours, Lane 4 corresponds to mPEG5000-MeDTB-lysozyme with 1,4-dithio-DL-threitol (DTT) added, Lane 5 is a plasma sample control, and Lane 6 is PEG molecular weight markers. […] Free PEG is liberated after treatment with low molecular weight thiol, such as DTT.

bovine serum albumin = bovine serum albumin (Bos taurus, UniProt P02769); experiment: Cleavage of mPEG-DTB-lysozyme by albumin (SDS-PAGE stained for PEG); type: physicochemical; conditions: treated with bovine serum albumin
Chain of bovine serum albumin (P02769 25-607): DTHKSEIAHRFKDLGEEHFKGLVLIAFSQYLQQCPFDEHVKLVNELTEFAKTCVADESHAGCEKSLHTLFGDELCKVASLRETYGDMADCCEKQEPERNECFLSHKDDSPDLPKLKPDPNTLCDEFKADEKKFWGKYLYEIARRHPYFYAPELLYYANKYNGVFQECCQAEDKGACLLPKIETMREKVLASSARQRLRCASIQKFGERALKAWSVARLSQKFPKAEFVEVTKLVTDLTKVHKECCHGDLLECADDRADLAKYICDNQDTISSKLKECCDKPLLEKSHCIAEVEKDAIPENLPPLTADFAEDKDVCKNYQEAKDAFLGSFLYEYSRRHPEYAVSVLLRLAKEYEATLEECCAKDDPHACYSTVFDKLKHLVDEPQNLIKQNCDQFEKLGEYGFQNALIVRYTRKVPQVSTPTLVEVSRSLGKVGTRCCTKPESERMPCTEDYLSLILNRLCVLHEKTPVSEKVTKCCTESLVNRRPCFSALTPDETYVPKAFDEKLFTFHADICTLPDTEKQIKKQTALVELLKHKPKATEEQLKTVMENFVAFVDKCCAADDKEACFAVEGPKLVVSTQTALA
Text: In another set of studies, it was shown that the thiol group of albumin was acting as the cleaving agent. Albumin is an abundant protein-thiol in plasma (Kratz, F. et al. J. Med. Chem., 45:5523 (2002)). The SDS-PAGE gel from this study is shown in FIG. 16B, where Lanes 1-12 were as follows:
The gel was stained for visibility of PEG. […] Lane 10 corresponds to mPEG-DTB-lysozyme treated with albumin and no spot on the gel corresponding to the mPEG-DTB-lysozyme conjugate is visible (compare to Lane 11), nor is a spot corresponding to released PEG visible (compare to Lane 4).

## PEG12000-MeDTB-lysozyme
[1]; intravenous
  T1/2α: 3.71 h
  T1/2β: 37.2 h
[1]; subcutaneous
  bioavailability (AUC): best bioavailability

## lysozyme: model polypeptide
[1]; intravenous
  T1/2α: 0.25 h
  T1/2β: 24.1 h
[1]; intravenous, within one hour after administration
  blood concentration decrease: more than 10 fold

## mPEG-lysozyme [reference compound]
[2]
  cleavage under reducing SDS-PAGE conditions: not affected
Bacterial cell wall
  cell-lysing (enzymatic) activity after thiolysis: remained inactive

## PEG12000-lysozyme [reference compound]
[1]; intravenous
  T1/2α: 2.17 h
  T1/2β: 32.9 h

## mPEG5000-MeDTB-lysozyme
[2]; 1 mM cysteine, 30 minute time point
  cleavage and release of lysozyme (RP-HPLC): near completion
[2]
  cleavage under reducing SDS-PAGE conditions: decomposed to regenerate native lysozyme
[2]; treated with cysteine
  cleavage by cysteine (SDS-PAGE stained for PEG): cleaved in the presence of cysteine
Bacterial cell wall
  cell-lysing (enzymatic) activity after thiolysis: nearly all
Bacterial cell wall; listed as mPEG-DTB-Lysozyme
  cell-lysing (enzymatic) activity after thiolysis: Recovery of enzymatic activity
[3]
  cleavage in plasma: cleaved in plasma
Bovine serum albumin
  cleavage by albumin: cleaved by the albumin
